Measured values from patent publication US20200054764A1, “MEDICAL USE OF ANTI-C MET ANTIBODY-CYTOTOXIC DRUG CONJUGATE” (priority 2016, published 2020).

Assays:
human c-Met-His = target: T1, human c-Met-His (Homo sapiens, UniProt P08581); test: ELISA binding of c-Met antibody to c-Met antigen; conditions: humanized antibody
T1 construct: His tag (6xHis) (C); made in house; host or cells: 293F cells (Invitrogen, Cat # R790-07); vector pEE6.4; c-Met gene template origene RC217003
Description: This experiment uses enzyme linked immunosorbent assay to detect affinity of c-Met antibody (including supermatant of hybridonma or recombinant expressed monoclonal antibodies) to c-Met antigen in vitro.
Experimental procedures: Coating buffer (PBS; Hyclone, Cat No.: SH30256.01B) was used to dilute antigen (human c-Met-His, example 1) to 2 μg/mL, which was added to a 96-well microplate at 100 μL/well (Costar 9018, Cat No.:03113024) and incubated overnight at 4° C. […] The plate was read with plate reader at 450 nm.
Murine anti-human c-Met monoclonal cell lines were obtained by immunizing mice, fusion of spleen cells, and screening of hybridomas. […] After the first booster immunization, mice serum was collected during 7 to 10 days after each booster immunization, and the titer was detected by ELISA (Methods were described in Example 2).
After immunization, mice with a serum titer higher than 1:10^5 were selected for cell fusion. Mouse B-cells and myeloma cells (SP2/0, ATCC number:CRL-1581™) were prepared respectively in aseptic conditions and counted. […] The next day, positive clones were detected by ELISA (see Methods in Example 2).

MKN45 cells = test: FACS binding to cell line MKN45, which highly expresses c-Met; parameters: species or system human; conditions: flow cytometry, read-out: MKN45/FCAS Binding activity
Description: A FACS method was used to detect the binding activity of c-Met humanized antibodies with the cell line MKN45, which highly expresses c-Met.
MKN45 cells (JCRB, Cat No.: JCRB0254) were resuspended in RPMI1640 medium (GIBCO, Cat No.: 11835-030) which contains 10% (v/v) fetal calf serum (FBS GIBCO, Cat No.: 10099-141) and Penicillin/Streptomycin (GIBCO, Cat No.: 15070-063) to reach 10,000,000 cells/mL. 2 mL of resuspended MKN45 cells was added to 96-well microtiter plate (Corning, Cat No.: 3799) at 150,000 cells/well, and 8 concentrations of c-Met antibody (5-fold gradient diluted, starting from 20 μg/mL) were added to the corresponding wells, and the final volume was 100 μL. The plate was incubated for 1 hour at 4° C. FACS buffer (PBS comprising 2.5% (v/v) FBS (Hyclone, Cat: SH30256.01B)) was added. The plate was centrifuged under 4° C. at 1300 rmp for 4 minutes, and the supernatant was discarded. This procedure was repeated three times. 100 μL of secondary antibodies (Fluorescence labeled goat-anti-mouse secondary antibodies with 1:200 dilution, Biolegend, Cat No. 405307; Fluorescence labeled anti-human secondary antibody with 1:30 dilution, Biolegend, Cat No. 409304) were added to each well, and the plate was incubated for 1 hour at 4° C. […] FACS buffer was added to resuspend the cells, and the prepared samples were detected by flow cytometry (BD FACS Array).

T1 sequence (P08581 with tags, fused parts or gaps limits assumed): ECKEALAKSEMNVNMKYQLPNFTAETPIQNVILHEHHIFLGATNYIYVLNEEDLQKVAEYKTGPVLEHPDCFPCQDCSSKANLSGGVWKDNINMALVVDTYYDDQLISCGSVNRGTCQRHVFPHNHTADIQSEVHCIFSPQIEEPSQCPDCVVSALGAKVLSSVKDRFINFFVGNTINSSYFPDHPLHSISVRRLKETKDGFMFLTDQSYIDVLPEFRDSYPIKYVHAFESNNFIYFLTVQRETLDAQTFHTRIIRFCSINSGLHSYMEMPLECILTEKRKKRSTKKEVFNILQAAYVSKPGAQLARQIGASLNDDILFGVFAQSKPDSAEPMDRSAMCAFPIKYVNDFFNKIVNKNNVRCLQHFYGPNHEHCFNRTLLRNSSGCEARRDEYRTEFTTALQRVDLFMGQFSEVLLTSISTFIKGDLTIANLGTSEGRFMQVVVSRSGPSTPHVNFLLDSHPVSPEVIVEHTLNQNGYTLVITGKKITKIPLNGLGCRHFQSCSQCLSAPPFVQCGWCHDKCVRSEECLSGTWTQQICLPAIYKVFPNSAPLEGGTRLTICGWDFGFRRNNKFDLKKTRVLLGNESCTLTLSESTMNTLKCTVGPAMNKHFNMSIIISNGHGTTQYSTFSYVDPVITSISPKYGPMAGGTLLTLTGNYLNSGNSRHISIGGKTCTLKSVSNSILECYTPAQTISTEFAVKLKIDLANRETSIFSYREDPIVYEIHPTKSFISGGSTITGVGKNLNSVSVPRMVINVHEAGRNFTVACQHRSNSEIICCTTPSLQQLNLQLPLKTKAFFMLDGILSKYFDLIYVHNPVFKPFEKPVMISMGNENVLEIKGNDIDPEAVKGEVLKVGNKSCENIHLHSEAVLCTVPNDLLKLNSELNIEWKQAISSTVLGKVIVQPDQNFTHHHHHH

B1: Ab-9 (antibody)
heavy: QVTLKESGPVLVKPTETLTLTCTVSGFSLPNYGVHWVRQPPGKALEWLAVIWSGGSTNYAAAFVSRLRISKDTSKSQVVFTMNNMDPVDTATYYCARNHDNPYNYAMDYWGQGTTVTVSSASTKGPSVFPLAPCSRSTSESTAALGCLVKDYFPEPVTVSWNSGALTSGVHTFPAVLQSSGLYSLSSVVTVPSSNFGTQTYTCNVDHKPSNTKVDKTVERKCCVECPPCPAPPVAGPSVFLFPPKPKDTLMISRTPEVTCVVVDVSHEDPEVQFNWYVDGVEVHNAKTKPREEQFNSTFRVVSVLTVVHQDWLNGKEYKCKVSNKGLPAPIEKTISKTKGQPREPQVYTLPPSREEMTKNQVSLTCLVKGFYPSDIAVEWESNGQPENNYKTTPPMLDSDGSFFLYSKLTVDKSRWQQGNVFSCSVMHEALHNHYTQKSLSLSPGK
light: DIVLTQSPASLAVSPGQRATITCRANKSVSTSTYNYLHWYQQKPGQPPKLLIYLASNLASGVPARFSGSGSGTDFTLTINPVEANDTANYYCQHSRDLPPTFGQGTKLEIKRTVAAPSVFIFPPSDEQLKSGTASVVCLLNNFYPREAKVQWKVDNALQSGNSQESVTEQDSKDSTYSLSSTLTLSKADYEKHKVYACEVTHQGLSSPVTKSFNRGEC
EC50 (human c-Met-His): 130 pM
EC50 (MKN45 cells): 1600 pM
